Blank lines part the entries; values can stand above or below the binder they belong to. Numbered stars: 1 amine (or outer) side, 2 acyl side, 3 side chain; on linkers, the order of the positions; unused ones are H or OH. Bridge positions count the residues as written; N and C are the ends. Side chains are listed from the residue outwards. Ends that are not written are not given here. * marks the point of attachment. C20 diacid = O=C(O)CCCCCCCCCCCCCCCCCCC(=O)*; γGlu = O=C(O)[C@H](CCC(=O)[*:2])N[*:1]; AEEA = NCCOCCOCC(=O)O
Target: T1, human amylin receptor (human, UniProt P30988 25-474; O60896 24-148, limits assumed)
T1 construct: whole, on cells; Calcitonin receptor plus RAMP-3 gives the amylin 3(a) receptor; membranes of Amylin 3(a)/CRE-luc cells were used; also called hAmylin-R; hAmylinR
T1 sequence (looked up) 1: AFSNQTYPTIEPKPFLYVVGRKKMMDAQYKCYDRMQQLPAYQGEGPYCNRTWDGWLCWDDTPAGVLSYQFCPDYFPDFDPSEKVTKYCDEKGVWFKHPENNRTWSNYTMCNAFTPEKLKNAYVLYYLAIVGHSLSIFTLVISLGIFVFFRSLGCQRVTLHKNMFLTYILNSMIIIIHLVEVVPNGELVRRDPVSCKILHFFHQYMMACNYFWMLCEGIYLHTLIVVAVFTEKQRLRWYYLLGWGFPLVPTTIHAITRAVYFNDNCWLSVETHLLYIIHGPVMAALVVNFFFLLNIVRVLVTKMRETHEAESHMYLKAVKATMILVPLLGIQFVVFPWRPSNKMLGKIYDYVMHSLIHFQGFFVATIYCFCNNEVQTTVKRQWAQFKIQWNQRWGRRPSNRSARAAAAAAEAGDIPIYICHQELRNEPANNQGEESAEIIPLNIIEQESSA
T1 sequence (looked up) 2: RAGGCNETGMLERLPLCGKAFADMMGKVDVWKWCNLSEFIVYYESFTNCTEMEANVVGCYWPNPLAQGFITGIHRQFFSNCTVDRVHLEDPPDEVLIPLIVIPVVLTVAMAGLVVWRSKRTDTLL
Test: SPA competition binding, displacement of 125I-rat amylin from membranes with human amylin 3(a) receptor (Assay V)
In short: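 SPA beads with BHK Amylin 3(a)/CRE-luc cell membranes (35 ng/μL final) in 50 mM Hepes pH 7.4, 1 mM CaCl2, 5 mM MgCl₂, 0.1% OA, 0.02% Tween20.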

IC50: 104 pM
B1: N^ε1-[2-[2-[2-[[(4S)-4-carboxy-4-(19-carboxynonadecanoylamino)butanoyl]amino]ethoxy]ethoxy]acetyl]-[Ser14,Arg17,Pro21,Pro27,Pro31]-h-amylin (peptide)
peptide: K([AEEA-γGlu-C20 diacid])CNTATCATQRLASFLRHSSPNFGAIPSSTPVGSNTY-NH2
modifications: disulfide 2-7; N-terminus assumed
SMILES: CC[C@H](C)[C@H](NC(=O)[C@H](C)NC(=O)CNC(=O)[C@H](Cc1ccccc1)NC(=O)[C@H](CC(N)=O)NC(=O)[C@@H]1CCCN1C(=O)[C@H](CO)NC(=O)[C@H](CO)NC(=O)[C@H](Cc1c[nH]cn1)NC(=O)[C@H](CCCNC(=N)N)NC(=O)[C@H](CC(C)C)NC(=O)[C@H](Cc1ccccc1)NC(=O)[C@H](CO)NC(=O)[C@H](C)NC(=O)[C@H](CC(C)C)NC(=O)[C@H](CCCNC(=N)N)NC(=O)[C@H](CCC(N)=O)NC(=O)[C@@H](NC(=O)[C@H](C)NC(=O)[C@@H]1CSSC[C@H](NC(=O)[C@@H](N)CCCCNC(=O)COCCOCCNC(=O)CC[C@H](NC(=O)CCCCCCCCCCCCCCCCCCC(=O)O)C(=O)O)C(=O)N[C@@H](CC(N)=O)C(=O)N[C@@H]([C@@H](C)O)C(=O)N[C@@H](C)C(=O)N[C@@H]([C@@H](C)O)C(=O)N1)[C@@H](C)O)C(=O)N1CCC[C@H]1C(=O)N[C@@H](CO)C(=O)N[C@@H](CO)C(=O)N[C@H](C(=O)N1CCC[C@H]1C(=O)N[C@H](C(=O)NCC(=O)N[C@@H](CO)C(=O)N[C@@H](CC(N)=O)C(=O)N[C@H](C(=O)N[C@@H](Cc1ccc(O)cc1)C(N)=O)[C@@H](C)O)C(C)C)[C@@H](C)O
notes: also called 14S, 17R, 21P, 27P, 31P

IC50: 666 pM
B2: N^ε1-[2-[2-[2-[[(4S)-4-carboxy-4-(19-carboxynonadecanoylamino)butanoyl]amino]ethoxy]ethoxy]acetyl]-[Thr14,Arg17,Pro21,Pro27,Pro31]-h-amylin (peptide)
peptide: K([AEEA-γGlu-C20 diacid])CNTATCATQRLATFLRHSSPNFGAIPSSTPVGSNTY-NH2
modifications: disulfide 2-7; N-terminus assumed
SMILES: CC[C@H](C)[C@H](NC(=O)[C@H](C)NC(=O)CNC(=O)[C@H](Cc1ccccc1)NC(=O)[C@H](CC(N)=O)NC(=O)[C@@H]1CCCN1C(=O)[C@H](CO)NC(=O)[C@H](CO)NC(=O)[C@H](Cc1c[nH]cn1)NC(=O)[C@H](CCCNC(=N)N)NC(=O)[C@H](CC(C)C)NC(=O)[C@H](Cc1ccccc1)NC(=O)[C@@H](NC(=O)[C@H](C)NC(=O)[C@H](CC(C)C)NC(=O)[C@H](CCCNC(=N)N)NC(=O)[C@H](CCC(N)=O)NC(=O)[C@@H](NC(=O)[C@H](C)NC(=O)[C@@H]1CSSC[C@H](NC(=O)[C@@H](N)CCCCNC(=O)COCCOCCNC(=O)CC[C@H](NC(=O)CCCCCCCCCCCCCCCCCCC(=O)O)C(=O)O)C(=O)N[C@@H](CC(N)=O)C(=O)N[C@@H]([C@@H](C)O)C(=O)N[C@@H](C)C(=O)N[C@@H]([C@@H](C)O)C(=O)N1)[C@@H](C)O)[C@@H](C)O)C(=O)N1CCC[C@H]1C(=O)N[C@@H](CO)C(=O)N[C@@H](CO)C(=O)N[C@H](C(=O)N1CCC[C@H]1C(=O)N[C@H](C(=O)NCC(=O)N[C@@H](CO)C(=O)N[C@@H](CC(N)=O)C(=O)N[C@H](C(=O)N[C@@H](Cc1ccc(O)cc1)C(N)=O)[C@@H](C)O)C(C)C)[C@@H](C)O
notes: also called 14T, 17R, 21P, 27P, 31P
